Data from paper PMC314469, “Protein Interaction Networks by Proteome Peptide Scanning” (PLoS Biology, 2004).

T1: amphyphisin SH3 (AMPH_HUMAN), P49418
T1 chain: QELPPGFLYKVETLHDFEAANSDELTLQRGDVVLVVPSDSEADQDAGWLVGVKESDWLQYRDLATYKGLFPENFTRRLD


Assays:
[1] = target: T1, amphyphisin SH3 (AMPH_HUMAN), P49418; experiment: SPOT array
[2] = target: endophilin SH3 (SH3G2_HUMAN), Q99962; experiment: SPOT array

Binder	normalised SPOT signal, Boehringer light units (BLU); mean over the file's lines of this peptide [1]	normalised SPOT signal, Boehringer light units (BLU); mean over the file's lines of this peptide [2]
RVEELSRPKRFYLE [Q9P2T0 193-206]	225	210
RTLGLRRPVHSSSI [Q9P1Y6 400-413]	20.6	49.2
AVQFLRRPKTITRV [O95473 15-28]	15.3	117
RRQRPTRPPRQDKP [Q9Y520 1420-1434]	6770	3120
RTEGFWRPLRGVNV [Q9NYZ2 96-109]	952	107
RTPAPRRPLQRRRP [Q9GZW5 220-233]	789	12000
AVPPPSRPQRLSSL [Q9NU00 50-63]	15600	7470
RVIGLLRPLKDVTV [Q10466 5697-5710]	205	261
RRPALHRPIKVNLL [Q9NWI3 259-272]	111	109
RSGNLKRPKIGKRF [Q9Y6X4 343-356]	13.4	50.1
RVLSLLRPWRPLRA [Q9NV38 3-16]	1430	366
AVMALRRPGERQYR [Q9P0P1 47-60]	38.9	206
AATQPLRPPRGTAA [P53814 641-654]	11900	1480
RQPRPPRPPLGDRP [Q9Y5R2 356-370]	1470	4010
RSRVPVRPPQQYSD [Q92560 382-396]	133	831
RSWWPQRPGRWLSR [Q9NRK9 487-500]	3180	558
RRLQPRRPGYPPRP [Q96EZ6 93-106]	58.2	325
RRRSPPRPPSRPAR [Q96JH1 1030-1044]	21500	9450
RRNVPMKPPDEAKV [Q9H5Q5 226-240]	2290	147

Continued, values first:

normalised SPOT signal, Boehringer light units (BLU); mean over the file's lines of this peptide [1]	normalised SPOT signal, Boehringer light units (BLU); mean over the file's lines of this peptide [2]	Binder
1490	9600	RRQPPARPPGPSTD [Q9BQA8 78-92]
39.9	752	RSSGPERPPHGLPL [Q9NPP7 72-86]
787	38.8	AVKVFHRPWRRGWH [O60449 754-767]
88.8	1580	RRSPPRRPAWTLGI [Q9HDB5 8-21]
41.2	11.2	RRGSPRRPRLSSSS [P46092 337-350]
165	121	RVHRLPRPLKQRML [Q9UQ05 500-513]
33.7	12.5	RTKRFKRPQFSPTG [Q96CC9 51-64]
35.2	144	RRARPRRPREAPAP [Q96Q34 14-27]
4120	7420	RRQPPVRPGRVHLP [P31152 530-543]
41.9	121	RSKSPRRPSPTARG [Q9BZW7 5-18]
21.6	55.3	RVLHLRRPGGPPHV [Q96DQ6 175-188]
12500	9710	RSEAPRRPSRKGLR [Q14839 1380-1393]
79.1	67.7	RQQTLPRPMKTLQR [O43161 2760-2773]
9.3	31.7	RRLALRRPEILVQP [Q96M62 296-309]
2030	395	RTPTPDRPPRSAWG [Q9H0S3 22-35]
283	587	RSQTPERPAKKIRE [Q9Y2N3 421-434]
170	187	RSRSLHRPAKTSEL [O95996 1839-1852]
154	3690	RSRSPGRPPKSARR [Q14739 82-96]
8150	5040	RRDPPRRPPRNGYG [Q8WW30 14-28]
41.8	28.4	RRSRLRRPAVRPTD [Q9BV18 42-55]
20.8	70.2	RRIHIKRPDDRAHL [Q9H3F6 298-311]
27.1	36.2	RVKYIKRPGAVLEA [O00763 939-952]
1450	9570	RRKAPPRPPRPAAP [O60486 5-18]
